These results are taken from US20020176853A1.

For the assay, the target named is mouse pro-IL-1β (mouse) (UniProt P10749). The experiment in a line: cell-based or functional assay.
Sequence of UniProt P10749 (P10749 whole entry): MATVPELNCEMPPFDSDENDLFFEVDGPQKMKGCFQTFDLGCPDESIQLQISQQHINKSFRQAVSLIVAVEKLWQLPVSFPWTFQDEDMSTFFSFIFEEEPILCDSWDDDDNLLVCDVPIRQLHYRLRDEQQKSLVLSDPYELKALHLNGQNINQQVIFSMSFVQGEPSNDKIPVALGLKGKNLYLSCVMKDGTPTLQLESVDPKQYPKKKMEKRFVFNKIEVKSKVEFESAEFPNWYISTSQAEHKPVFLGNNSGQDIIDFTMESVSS

Consider “pro-caspase-1 (full-length, wild-type) (from UniProt P29466 1-404) (enzyme)”, for which the secretion of mature IL-1β into the culture medium (ELISA), COS-7 cells lay within 80 to 250 pg/mL.
